The record followed here is patent US11512128B2, “VEGF/DLL4 binding agents and uses thereof” (MEREO BIOPHARMA 5, INC., priority 2011, dated 2022).

Some results are limits rather than exact numbers.

The target in one test is T1, mouse VEGF165 (Mus musculus, UniProt Q00731).
T1 sequence (Q00731 27-190 isoform Q00731-2): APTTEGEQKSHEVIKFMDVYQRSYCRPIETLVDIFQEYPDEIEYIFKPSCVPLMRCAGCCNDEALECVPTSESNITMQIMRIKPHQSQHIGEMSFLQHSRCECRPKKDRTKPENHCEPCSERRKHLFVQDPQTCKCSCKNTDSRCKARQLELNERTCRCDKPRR
The test can be described thus: Biacore binding affinity (KD) to mouse VEGF. Conditions: Biacore 2000, biotinylated mouse VEGF165 on streptavidin chip; read-out: KD mVEGF. The method, then:
(§1) The KDs of parental antibodies anti-VEGF 219R45 (IgG format), anti-DLL4 21R79 (IgG format), anti-DLL4 21M18 (IgG format) and bispecific antibodies 219R45-MB-21M18 and 219R45-MB-21R79 were determined using a Biacore 2000 system from Biacore LifeSciences (GE Healthcare). Recombinant human DLL4-Fc or mouse DLL4-Fc proteins were immobilized on CM5 carboxyl chips using standard amine-based chemistry (NHS/EDC) and blocked with ethanolamine. Recombinant human VEGF165 or mouse VEGF165 were biotinylated and immobilized on streptavidin chips. The antibodies were serially diluted 2-fold from 100 nM to 0.78 nM in HBS-P (0.01M HEPES pH7.4, 0.15M NaCl, 0.005% v/v Polysorbate 20). For each antibody, all 8 dilutions were sequentially injected over a specific chip. Kinetic data were collected over time and were fit using the simultaneous global fit equation to yield affinity constants (KD values) for each bispecific antibody.

In the next test the target is mouse DLL4-Fc. The test can be described thus: Biacore binding affinity (KD) to mouse DLL4. Conditions: Biacore 2000, mouse DLL4-Fc on CM5 chip; read-out: KD mDLL4. The method, then: as §1
(In general: SPR reads the build-up and loss of mass on a sensor chip optically.)

For test [1], the system named is VEGF-induced proliferation of HUVEC cells. The test can be described thus: HUVEC proliferation assay. In kind it is cell-based, human. As to conditions: hVEGF 5 ng/ml, Alamar Blue on day 7. Here is the method: FIG. 3. Inhibition of VEGF-induced HUVEC proliferation by anti-VEGF/anti-DLL4 bispecific antibodies. Fluorescence intensity is read using an excitation wavelength of 530 nm and an emission wavelength of 590. 219R45-MB-21M18 (-●-); 219R45-MB-21R79 (-▴-); 219R45 (-▪-); Medium with no VEGF (-⋄-).
HUVEC cells were obtained from Lonza (Walkersville, Md.) and cultured in growth media (M199, 10% heat-inactivated FBS (HI-FBS), 50 μg/ml EGS, 1X heparin, 1 mM L-glutamine). For the HUVEC proliferation assay, a 96-well plate was pre-coated with 50 μl of 10 μg/ml rat tail collagen type I solution (collagen I in 0.02N acetic acid) and incubated at 4° C. overnight. After incubation, the plate was thoroughly aspirated to remove unbound collagen I solution and washed once with 200 μl DPBS. The HUVEC cells were removed from the surface of the growth flasks using an endothelial cell subclone reagent and centrifuged at 1200 rpm for 5 minutes at 4° C. The cells were resuspended in starvation/assay medium (M199 and 2% HI-FBS, 1× heparin, 5 U/ml heparin-glutamine) at a density of 10^5 cells/ml. The cells were seeded into the collagen-coated assay plate at 5000 cells/well, 50 ul/well. The cells were incubated for 3 hours at 37° C., washed one time, refed with 100 ul assay media, and incubated overnight at 37° C. The next day, bispecific antibodies 219R45-MB-21M18, 219R45-MB-21R79, parental antibody 219R45, or control antibody LZ1 were prepared in a mixture with human VEGF (R&D Biosystems, Minneapolis, Minn.). The antibodies were serially diluted 5-fold from […] to 0.25 nM in assay buffer in combination with hVEGF (final concentration 5 ng/ml). The mixture was pre-incubated at 37° C. for 2 hours. The medium was removed from the assay plate, and 100 μl of the antibody/hVEGF mixture was added to each well. […] The plate was read with a SpectraMax M5e Microplate reader (Molecular Devices, Sunnyvale CA) using a excitation wavelength of […] and an emission wavelength of 590 nm.

Another test concerns the target human DLL4-Fc (Homo sapiens, UniProt Q9NR61). The test can be described thus: Biacore binding affinity (KD) to human DLL4. As to conditions: Biacore 2000, human DLL4-Fc on CM5 chip; read-out: KD hDLL4. Here is the method:
as §1
Several additional anti-DLL4 antibodies were identified that had binding affinities intermediate to the KDs of 21M18 and 21R79. Two of these anti-DLL4 antibodies were used to produce anti-VEGF/anti-DLL4 bispecific antibodies 219R45-MB-21R75 and 219R45-MB-21R83. Using the Biacore 2000 system as described above, the KDs of the bispecific antibodies 219R45-MB-21R75 and 219R45-MB-21R83 to human DLL4 were determined.

Test [2] relates to DLL4-induced Notch signaling. The test can be described thus: DLL4-induced Notch signaling luciferase reporter assay in Notch2-expressing PC3 cells. In kind it is cell-based. Conditions: coated human DLL4 100 ng/well, antibody 20 to 0.064 ug/ml. The method, then: FIG. 4. Inhibition of DLL4-induced Notch signaling by anti-VEGF/anti-DLL4 bispecific antibodies. Luciferase activity was measured using a dual luciferase assay kit with firefly luciferase activity normalized to Renilla luciferase activity. 219R45-MB-21M18 (-●-); 219R45-MB-21R79 (-▪-); 21M18 (-∘-); 21R79 (-□-).
Human PC3 cells were transfected with an expression vector encoding a full-length human Notch2 receptor and a firefly luciferase reporter vector (8× CBF-luciferase reporter) that is responsive to Notch signaling. The cells were also transfected with a Renilla luciferase reporter (Promega, Madison, Wis.) as an internal control for transfection efficiency. Purified human DLL4 protein was coated onto 96-well plates at 100 ng/well and Notch2-expressing PC3-luc cells were added to the wells. Anti-VEGF/anti-DLL4 bispecific antibodies 219R45-MB-21M18, 219R45-MB-21R79, parental anti-DLL4 antibodies 21M18, 21R79 or a control antibody LZ1 were serially diluted 5-fold from 20 ug/ml to 0.064 ug/ml, added to the appropriate wells, and incubated overnight. Luciferase activity was determined using a dual luciferase assay kit (Promega, Madison, Wis.) with firefly luciferase activity normalized to Renilla luciferase activity.
(In general: In a reporter assay the amount or activity of a reporter protein is the signal.)

Another test has as its target T2, human VEGF165 (Homo sapiens, UniProt P15692).
T2 sequence (P15692 27-191 isoform P15692-4): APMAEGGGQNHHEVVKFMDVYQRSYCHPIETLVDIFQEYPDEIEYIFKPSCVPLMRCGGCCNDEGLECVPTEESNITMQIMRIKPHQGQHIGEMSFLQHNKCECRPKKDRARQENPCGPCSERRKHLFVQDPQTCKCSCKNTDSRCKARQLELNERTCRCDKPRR
The test can be described thus: Biacore binding affinity (KD) to human VEGF. Conditions: Biacore 2000, biotinylated human VEGF165 on streptavidin chip; read-out: KD hVEGF. Here is the method: as §1

Sequence of mouse DLL4-Fc (Q9JI71 27-519 limits assumed): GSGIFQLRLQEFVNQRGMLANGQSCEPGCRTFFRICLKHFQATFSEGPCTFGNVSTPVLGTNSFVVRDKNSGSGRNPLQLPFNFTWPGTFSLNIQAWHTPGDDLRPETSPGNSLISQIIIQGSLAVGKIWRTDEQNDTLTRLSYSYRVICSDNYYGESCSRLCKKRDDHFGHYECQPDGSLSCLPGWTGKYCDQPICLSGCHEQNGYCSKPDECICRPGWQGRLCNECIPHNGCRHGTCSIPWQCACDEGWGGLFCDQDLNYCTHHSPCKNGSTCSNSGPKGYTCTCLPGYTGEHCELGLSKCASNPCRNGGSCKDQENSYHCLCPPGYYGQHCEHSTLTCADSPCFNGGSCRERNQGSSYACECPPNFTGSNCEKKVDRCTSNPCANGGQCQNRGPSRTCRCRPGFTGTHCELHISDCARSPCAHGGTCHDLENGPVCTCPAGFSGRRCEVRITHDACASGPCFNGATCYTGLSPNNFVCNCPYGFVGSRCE
Sequence of human DLL4-Fc (Q9NR61 27-522 limits assumed): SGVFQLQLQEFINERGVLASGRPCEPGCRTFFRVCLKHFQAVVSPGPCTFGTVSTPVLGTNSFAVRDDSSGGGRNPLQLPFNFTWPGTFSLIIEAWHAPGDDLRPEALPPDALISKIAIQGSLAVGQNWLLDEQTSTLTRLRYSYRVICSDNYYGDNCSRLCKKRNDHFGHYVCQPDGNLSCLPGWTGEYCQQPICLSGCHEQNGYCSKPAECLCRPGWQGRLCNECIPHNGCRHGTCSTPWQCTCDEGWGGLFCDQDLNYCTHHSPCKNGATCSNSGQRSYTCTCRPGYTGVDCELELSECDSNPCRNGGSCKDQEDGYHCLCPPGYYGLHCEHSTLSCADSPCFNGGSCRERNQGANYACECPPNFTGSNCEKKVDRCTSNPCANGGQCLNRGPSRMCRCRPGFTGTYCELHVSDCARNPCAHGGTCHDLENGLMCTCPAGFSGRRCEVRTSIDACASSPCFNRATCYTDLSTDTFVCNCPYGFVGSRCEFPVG

B1: 219R45: monoclonal antibody that specifically binds human VEGF; parental anti-VEGF antibody (antibody)
heavy: QVQLVQSGAEVKKPGASVKVSCKASGYTFTNYWMHWVRQAPGQGLEWMGDINPSNGRTSYKEKFKRRVTLSVDKSSSTAYMELSSLRSEDTAVYFCTIHYDDKYYPLMDYWGQGTLVTVSSASTKGPSVFPLAPCSRSTSESTAALGCLVKDYFPEPVTVSWNSGALTSGVHTFPAVLQSSGLYSLSSVVTVPSSNFGTQTYTCNVDHKPSNTKVDKTVERKCCVECPPCPAPPVAGPSVFLFPPKPKDTLMISRTPEVTCVVVDVSHEDPEVQFNWYVDGVEVHNAKTKPREEQFNSTFRVVSVLTVVHQDWLNGKEYKCKVSNKGLPAPIEKTISKTKGQPREPQVYTLPPSREEMTKNQVSLTCLVKGFYPSDIAVEWESNGQPENNYKTTPPMLDSDGSFFLYSKLTVDKSRWQQGNVFSCSVMHEALHNHYTQKSLSLSPGK
light: DIVMTQSPDSLAVSLGERATISCRASESVDNYGISFMKWFQQKPGQPPKLLIYAASNQGSGVPDRFSGSGSGTDFTLTISSLQAEDVAVYYCQQSKEVPWTFGGGTKVEIKRTVAAPSVIFPPSDEQLKSGTASVVCLLNNFYPREAKVQWKVDNALQSGNSQESVTEQDSKDSTYSLSSTLTLSKADYEKHKVYACEVTHQGLSSPVTKSFNRGEC
Usually Kd stands for the free concentration of one partner at which half of the binding sites on the other are occupied at equilibrium, for simple one-to-one binding. For B1, the Kd with mouse VEGF165 is approximately 23 nM; at mouse DLL4-Fc, more than 100 nM; with human DLL4-Fc, more than 100 nM. The “inhibition of VEGF-induced HUVEC proliferation” value in test [1] was “inhibited HUVEC proliferation”.

B2: 21R79: monoclonal antibody that specifically binds human DLL4; parental anti-DLL4 antibody (antibody)
heavy: QVQLVQSGAEVKKPGASVKISCKASGYSFTAYYIHWVKQAPGQGLEWIGYIANYNRATNYNQKFKGRVTFTTDTSTSTAYMELRSLRSDDTAVYYCARDYDYDVGMDYWGQGTLVTVSSASTKGPSVFPLAPCSRSTSESTAALGCLVKDYFPEPVTVSWNSGALTSGVHTFPAVLQSSGLYSLSSVVTVPSSNFGTQTYTCNVDHKPSNTKVDKTVERKCCVECPPCPAPPVAGPSVFLFPPKPKDTLMISRTPEVTCVVVDVSHEDPEVQFNWYVDGVEVHNAKTKPREEQFNSTFRVVSVLTVVHQDWLNGKEYKCKVSNKGLPAPIEKTISKTKGQPREPQVYTLPPSREEMTKNQVSLTCLVKGFYPSDIAVEWESNGQPENNYKTTPPMLDSDGSFFLYSKLTVDKSRWQQGNVFSCSVMHEALHNHYTQKSLSLSPGK
light: B1 light
As to B2, the Kd with mouse VEGF165, at mouse DLL4-Fc and with human VEGF165 was more than 100 nM in each case. Besides, in test [2], the “inhibition of DLL4-induced Notch signaling” value was “inhibited DLL4-induced Notch signaling”.
